# In the DeepSol protein solubility set:
# Assay: soluble on expression in E. coli; label from the status in PepcDB or PDB records
row,Sequence,soluble on expression in E. coli
1,MPNQVLFCITKMRYEEKRIYHYLEESGLSIKIMLDSSNLDEVVAHNSDYCLCIVRVMSQHRAFRIAEYMEALGIPTLNSSRAIQICADKAIQALILANRDVIKQPHFSILRNYEDLSNFNGKMVVKPVSSSWGRGISLIENEDALTTWKISHQELDIQNQNLPYLIQEFIDKPNYDVRIVIINTKPVVAFKRVSANNWKTNTHLGATVVPIVIDDSINKIVTEIIKVVGPGIYGLDLMKNRQNEWIFCEINQNPEFAHSWKIHHVDVAEKIAQYVSSKVKVGQKNASTHLEHHHHHH,not soluble
2,MGSDKIHHHHHHMKISPLCPSCLLGRVYYEAKLVTDDEDLISQCVDESLKILAENYSSRPINAHLATRIHRRVYEILGVEDPYAEVKARANEVARQVLPLAKEIVEGSDDPFKTAVIVSIVGNNFDYGVQGHKVVEEEFRDFLKRKVQEGLKINDTERIKELSSGKVVYLTDNAGEIFFDTLLMKEIKRRCEKLTAVVRGRPIISDATIEDARLARVDKIADELLTNGKGAIGIIMDELPDETRKALEEADLIVAKGMANYECLSDGSLKPIAFLLTAKCEPVARDIGVNVGDMVAKVVE,soluble
3,MDTDNNLTFVDFYYRWLEITKLDIINDTSYKRYITAIKAFKDCFGNKLISDIDSLSYQKFLKDYGRGHFLNNGQLRPRTSNTVSKMNNCLKQAFESAVEQGYIKKNLEHHHHHH,not soluble
4,MAKYQELVEQLKRQIKSGIWHPGDKLPSLRRQSEHSGLSLMTVLHAYQILESQGWVTSQPRSGYRVAPNIKSSNEPQAPAAVSWTEQVDINEFIFDVLQASKNPSMINFGFAYPDPSLYPRYHVNRAMSAAARNMPISTTFDNLPPGNEQLRTIIAKRYAAKGIEISPDEIVITAGALEALTLSLQACTRPGDWVVVESPAFYGALQSLERLGLKALSVRTDPVTGIDLDSLERALQTHDVKACWLMSNFQNPLGFTLSNEKKQKLIELTQRYNVPVIEDDVYSELHAENDSVYPLRMFDDTGNTMLCSSFSKSLIAGLRIGWVAAGKRALEVQKLQLMSTLATSAPVQMTLVHYLTSRNYESHLKQLRKKLFERKSKMTNLLNELLPEEVKVLSQSGGYFIWLELPKHIDALQIYREALKDNISIAPGKMFSLTEQYDHCIRLNASFELNDKYVHALNLLANIIRDHLAK,not soluble
5,MPPQKSKALWYAQLELGFRFDGQRTIMNHRKHHGPVRVQKMLWPEKTGVCHAIIVHPPAGIAGGDHLTFQVSTERKAHAVVTTPGAGKWYKTNGKQAFQHIYLNIANDSTLEWLPQETMLFDAAYAQSETIIHLDQTASFMGWDMLVLGRQARLETFEQGCYANRFKLYRNHKLLVADTLRFKGKDRWLSSCLGMNGHAVMGSFWAVAPEKYRATLYLEQHIELIRELMMRMDVPVTLTLLDDVVCARFLGDDVRACHDAFAAIRARLRRYWFDLDEEFPRIWRTLEHHHHHH,not soluble
6,MISIKGTGRFLLDNYRIWQRRAFNRPIQLRKGYKVLAIETSCDDTCVSVLDRFSKSAAPNVLANLKDTLDSIDEGGIIPTKAHIHHQARIGPLTERALIESNAREGIDLICVTRGPGMPGSLSGGLDFAKGLAVAWNKPLIGVHHMLGHLLIPRMGTNGKVPQFPFVSLLVSGGHTTFVLSRAIDDHEILCDTIDIAVGDSLDKCGRELGFKGTMIAREMEKFINQDINDQDFALKLEMPSPLKNSASKRNMLSFSFSAFITALRTNLTKLGKTEIQELPEREIRSIAYQVQESVFDHIINKLKHVLKSQPEKFKNVREFVCSGGVSSNQRLRTKLETELGTLNSTSFFNFYYPPMDLCSDNSIMIGWAGIEIWESLRLVSDLDICPIRQWPLNDLLSVDGWRTDQL,not soluble
7,MSLQAVTLSVLVVEDTDCERFYITHLLRQFGWLVESRSNGKAALDYLQQNEVHILVSDWRMPEMSGIELCQIVKNNHLPPFVILLTANNQTADIVLGIEAGADDFICKPFLPELLKVRMLAAMRIVQLQHNLSRNEGHHHHHH,not soluble
8,MAMSQQDLPTLFYSGKSNSAVPIISESELQTITAEPWLEISKKGLQLEGLNFDRQGQLFLLDVFEGNIFKINPETKEIKRPFVSHKANPAAIKIHKDGRLFVCYLGDFKSTGGIFAATENGDNLQDIIEDLSTAYCIDDMVFDSKGGFYFTDFRGYSTNPLGGVYYVSPDFRTVTPIIQNISVANGIALSTDEKVLWVTETTANRLHRIALEDDGVTIQPFGATIPYYFTGHEGPDSCCIDSDDNLYVAMYGQGRVLVFNKRGYPIGQILIPGRDEGHMLRSTHPQFIPGTNQLIICSNDIEMGGGSMLYTVNGFAKGHQSFQFQLEHHHHHH,soluble
9,MGSDKIHHHHHHMNKKSSLNNLLYIQEHRSCRNYLEKVENGFKYIEFSHEEVILEKEISWNYLLFVLEGECIINCNQFRERLFQANCMVLLPKTAMVEIKVIAGTRLLSLSFDVPLNVCDKFILQSLTGLCRKLDYNFQSLAIRYPLPPYLEIVTYCLTNKMDCGHFHTLLQQELFFLLRGFYLKEELALLFHPIISAELTFKDFVIGNYFKVSNVNDLISLSNMCKSSFYCKFKEVFGMTAKQWLLKQRNTHILNKVMTSETTVGELMEEFRFESQAHFTHYCKQHFNCTPRELIMKYQVVNQ,not soluble
10,MSLEALLSEDVKIIASALKAAIDKDRKSTSKREAETGIRYYNHENDIMNNRIFYVDDEGVLREDKYASNVRIPHGFFPEIVDQKTQYLLSNPVEYETENEELKEYLAEYYNSEFQVVLQELVEGSSQKGFEYVYARTNAEDRLCFQVADSLNVFGVYNEYNELQRICRHYITEIEKDGETVDIHHAEVWTDQNVYFFVAEDNKDYELDEAEPINPRPHVLAVDSDNESLLQRSYGQIPFYRLSNNKQETTDLKSIKALIDDYDLMNCFLSNNLQDFAEAIYVVSGFQGDDLSKLRQNVKSKKVVGTGSDGGLDVKTVTIPTEGRKTKMEIDKENIYKFGMAFDSTQVGDGNITNIVIKARYTLLNMKANKTEARLRALLEWMNKLVIDDINRRYTKAFDPTEVSFTFTREVMVNETDIVNNEKTEAETRKIILESILQVAPRLDDDNVLRLICEQFDLDWEDVKEALEEAEYTQGLTDNTDEEETAVTPNVPTQQMAEGATGSTESQLPGEGHHHHHH,not soluble
11,MGSDKIHHHHHHMDKRNSCYLCFGFQSRILARESALMDTQSLQAFLAVADHGSFSLAAEQLHLTQPAVSKRIAGLEGQVGAQLFDRLNRRVTLTEAGRTLLPRARQILVMFDDSRRALSNLSGDISGSLTMATSHHVGLHRLPPLLKAYTQAYPDVRMDMRFLDSEQAYQGVLDGDLELAVVTLAPVPDPALTVVPVWIDQLRFVCGREHALAGRDTVALSALSDYDAVLPGHLTFTRGIVVDTFARDGLQVNVSLSTNYLETLKMMVAIGLGWSVLPETMIDDEIEVIPIDHRPIQRPLGYLFHKSRTLSNAARAMLEMLDAARDTTARQWV,not soluble
12,MPKVGMPEIRKPQLVKATMSVIDRVGLHAASISLISKEAGVSTGIINHYFGGKHGLLEETMREILRQLSSTITGKLRALPADAHHQRINAIIDGNFVGYQAENKVAKTWLAFWSYSMHDEQLKRLQRVNERRLLSHLRRELKALLSAEQAELVAHGIASLIDGIWLRGTLNPQGIEADKARIIINDYLDKQLTFYSHKI,not soluble
13,MSLNDDYPVVLAAPTGRASKRLQESTGLEAMTIHRLIGWNQDTKPEDILENEINARLIIIDEMSMVDTWLFHQFLSAVPLDAQLIFVGDEDQLPSVGPGQVFKDLIESKAIPRVNLTEVYRQQDGSSIIELAHRMKLGQKIDITQRFHDRSFINCQANQIPTVVEKVVTSAVNKGYTMADIQVLAPMYKGNAGIKRLNQVLQDILNPKKKDTREIEFGDVVFRKGDKVLQLVNRPNDNIFNGDIGVIVGIFWAKENALNKDVLVVDFEGNEITFTKQDMMELTHAYCTSIHKSQGSEFPIVIMPIVKQYFRMLQRPILYTGLTRAKTSLVLLGDPEAFDIGLKTNGQARLTQLCTLLKNYFNSEGHHHHHH,not soluble
14,MEGISNFKTPSKLSEKKKSVLCSTPTINIPASPFMQKLGFGTGVNVYLMKRSPRGLSHSPWAVKKINPICNDHYRSVYQKRLMDEAKILKSLHHPNIVGYRAFTEANDGSLCLAMEYGGEKSLNDLIEERYKASQDPFPAAIILKVALNMARGLKYLHQEKKLLHGDIKSSNVVIKGDFETIKICDVGVSLPLDENMTVTDPEACYIGTEPWKPKEAVEENGVITDKADIFAFGLTLWEMMTLSIPHINLSNDDDDEDKTFDESDFDDEAYYAALGTRPPINMEELDESYQKVIELFSVCTNEDPKDRPSAAHIVEALETDV,soluble
15,MGSDKIHHHHHHLPTSVSPISYQLTVKTYLPGYGYTADKNNLTFEGQVLIELNITKSIKKVSLNSKDLNYTEEFIKKSSILVNGKSIAFTLDDKQSTHEKIFFNLDETVEPTTSATLKVAFGAPLRTDMSGLYQTTYTNSKGESKMAAVTQMEPVYARRMVPCFDEPAYKATWTVTVIHPNKTVAVSNGIEDKVEDGQPGFIISTFKPTPRMSSYLLAIFISEFEYNEATTKSGVRFRVWSRPEEKNSTMYAVEAGVKCLEYYEKYYNISFPLPKQDMVALPDFSAGAMENWGLITYRESALLYDPRIYSGSQKRRVAVVIAHELAHQWFGNLVTLKWWNDLWLNEGFATLVEYLGTDEISDGNMRMREWFTMDALWSALAADSVASTHPLTFKIDKAMEVLDSFDSVTYDKG,not soluble
16,MYNSATVIYQNLLKSTPKKASEYYYYLGDICWRKEKTDSAKYYFMEGIKTDETYAMNYVGIGIITMKSNATEGQRSFDKALQMTSQKNSQVLNAIGEYYILEADKAELPKGIALLKKSTEIDAKNAMSWILLGDAYGKQAEGSKQAESYGKAANLFHSVPLLKMKYGKMYAAARNKDLSIKYYNEGLAADPTYGPIYRELGDLYNRFRQYDLAIQNYKKYLTYIDSNDDVEFRYADFLFKNNNYAEAIEVFNKLEAKKYNSPYIYNRRAVCYYELAKYDLAQKDIETYFSKVNATKAKLEHHHHHH,not soluble
17,MGSDKIHHHHHHGEYNKLLKSTDYEYKYEAAKNYFAKGQYNRSATLLNELITILKGTDKAEESLYMLGMSYYNQKDYQTAAQTFITYFNTYPRGTFTELARFHAGKSLFLDTPEPRLDQSSTYQAIQQLQMFMEYFPNSTKKQEAQDMIFALQDKLVLKELYSAKLYYNLGNYLGNNYESCVITAQNALKDYPYTDYREELSILILRARHEMAIYSVEDKKMDRYRETIDEYYAFKNEFPESKYLKEAEKIFNESQKVIKD,not soluble
18,MSFTDEKIRLNIGGTIFETSKSTLTKFDGFFKTLLETDIPIQKDDSNCIFIDRSPRHFEKILNYLRDGADVDLLPESEKEVREILKEAQFYLLEGLMELCKRSSCKIRTFESYHHLLKLIAEAGKPVLVMFYLVKDNRIVHVPNNFEFLDFLEKHQGKLDIYFKESPYETTHQNPSQFLPPGREEAAPSWTYCFYNTPKLPFRFTISFVEKLEEDIEFVLGNLNK,not soluble
19,MLSCVIPAHDEAALIGQTLQCLHACAQAMQLDYEAIVVADACSDDTAAIARANGASVIEVELRHIAATRNAGAQAAQGDRLLFLDADTQVNPQVMAAALAALDAGAVGGGARVHLHGKRVWVERMAQAVFGWIFRLSGIAPGCFLFCTRAAFASAGGFDTRYYAGEDVALSRSLARCGRFVILRQTVHTSDRKLRSFSKREHVGLLLRFLWRGRRMLQTRDALGFWYQRRRLEHHHHHH,not soluble
20,MGSDKIHHHHHHMNVENQTPNVDHQEIAKFEAIASRWWDLEGEFKPLHRINPLRLGYISQRAEGLFGKKVLDVGCGGGILAESMAREGADVTGLDMGAEPLQVARLHALESGVTVDYVQETVEAHADAHSGLYDVVTCMEMLEHVPDPQSVVQACAKLVKPGGHVFFSTINRNAKAWMMAVIGAEYILKMVPRGTHDIKKFIRPAELMRWVDDTPLRERHITGLHYNLLTDRFKLGPNVDVNYMLHTSHDKQC,not soluble
